Reference: patent US20250154287A1

Target: CD19 on B cells and plasma cells in PBMCs (human) (UniProt P15391)
Assay: cell-based or functional assay

CD19 on B cells and plasma cells in PBMCs (human), sequence (P15391 20-556): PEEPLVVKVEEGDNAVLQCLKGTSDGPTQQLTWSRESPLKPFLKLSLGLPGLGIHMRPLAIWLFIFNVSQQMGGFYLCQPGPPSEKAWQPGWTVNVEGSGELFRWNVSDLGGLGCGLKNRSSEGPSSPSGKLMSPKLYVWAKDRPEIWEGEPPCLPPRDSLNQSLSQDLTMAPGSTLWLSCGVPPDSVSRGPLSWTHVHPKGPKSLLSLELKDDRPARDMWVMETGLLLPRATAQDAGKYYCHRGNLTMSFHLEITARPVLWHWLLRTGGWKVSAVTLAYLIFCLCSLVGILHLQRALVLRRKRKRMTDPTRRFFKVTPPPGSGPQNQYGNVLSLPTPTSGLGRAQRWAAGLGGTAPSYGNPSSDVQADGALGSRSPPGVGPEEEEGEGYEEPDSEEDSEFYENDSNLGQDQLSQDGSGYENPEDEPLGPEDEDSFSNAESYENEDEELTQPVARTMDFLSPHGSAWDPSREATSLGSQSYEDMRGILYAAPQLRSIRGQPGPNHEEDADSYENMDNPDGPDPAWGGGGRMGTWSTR

EC50 (nM), reduction in secreted IgA in human PBMC supernatants: 0.0368 nM
reduction of secreted IgA in PBMC supernatants (IgA ELISA): 57%
Substance: CD19-CD3 scFv (InvivoGen, Cat number Bimab-cd19cd3-01)
EC50 (nM), cytotoxicity against IgA^+ CD20^+ B cells by flow cytometry: 0.00325 nM
Top (MFI) as printed, cytotoxicity against IgA^+ CD20^+ B cells by flow cytometry: 92.8
